Residue numbers refer to the chain shown, from its start.
T1: CD300c抗原(11832-H08H、Sino Biological) (UniProt Q08708)
T1 sequence (looked up): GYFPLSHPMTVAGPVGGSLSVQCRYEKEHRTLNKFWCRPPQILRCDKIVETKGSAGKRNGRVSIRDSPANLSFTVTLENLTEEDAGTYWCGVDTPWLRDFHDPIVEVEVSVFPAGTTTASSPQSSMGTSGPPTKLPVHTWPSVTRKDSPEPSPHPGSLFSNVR

B1: 抗-CD300cモノクローナル抗体 SK15 (antibody, from another filing, V domains shown)
VH: RVQLLESGGGLVQPGGSLRLSCAASGFTFSSYAMHWVRQAPGKGLEWVSAINGSGGSTYYADSVKGRFTISRDNSKNTLYLQTNSLRAEDTAVYYCARGLQGFDYWGQGTLVTVSS
VL: EIVLTQSPGTLSLSPGERATLSCQASQDITNYLNWYQQKPGQAPRLLIYDASSLETGIPDRFSGSGSGTDFTLTISRLEPEDFAVYYCQQSYSTPITFGQGTKVEIK
B2: 抗-CD300cモノクローナル抗体 SK16 (antibody, from another filing, V domains shown)
VH: B1 VH with H35S, Y59L, T83M, L100V, Q101S, Y105S
VL: B1 VL with Q24R, A25I, D28S, T30S, N31S, S53L, L54R, E55A, S93K
B3: 抗-CD300cモノクローナル抗体 CK3 (antibody, from another filing, V domains shown)
VH: RVQLLESGGGLVQPGGSLRLSCAASGFTFSSYAISWVRQAPGKGLEWVSATSGSGRATYYADSVKGRFTISRDNSKNTLYLQMNSLRAEDTAVYYCARDTWWEGYFDLWGQGTLVTVSS
VL: EIVLTQSPGTLSLSPGERATLSCQASHISTHLNWYQQKPGQAPRLLIYGASSRATGIPDRFSGSGSGTDFTLTISRLEPEDFAVYYCQQYNTYPPTFGQGTKVEIK

The binders below were run against T1, CD300c抗原(11832-H08H、Sino Biological) (assay: binding ELISA, CD300c antigen coated at 8 ug/mL, HRP anti-Fc IgG).

EC50 | Binder
> 0.2 µg/mL | B1
> 0.2 µg/mL | B2
> 0.2 µg/mL | B3
